Publication PMC12604781 (PLOS Pathogens, 2025)

Molecular target: SUMO-PRV peptide AB (pseudorabies virus (PRV))
Assay: ITC

Substance: pcGAS^CT (C-terminus, catalytic domain of porcine cGAS) (domain or fragment)
- Kd: 2920 nM
